From paper PMC7010297, “How the initiating ribosome copes with ppGpp to translate mRNAs” (PLoS Biology, 2020) come the findings set out here.

In series [1] the test system is mRNA translation (protein synthesis). The series is described as follows: In vitro translation in pure cell-free system (PURExpress, Lumio labelling). Type of series: biochemical. Conditions: 2 mM ppGpp; Fig 6G.
The target in series [2] is 30S IC (Escherichia coli, UniProt P0A705). To be noted: for T. initiation Average / T. initiation Replicates: Fig 7A. The procedure:
Fig 7 SETIs and ppGpp tolerance. (A) Translation initiation efficiency as a function of mRNAs along five steps of transition from NS to S conditions. […] Symbols and error bars represent averages of three replicates and standard deviations, respectively (S1 Data). (C) Comparison of ppGpp tolerance as calculated from the ratio of translation initiation efficiencies found in the presence of 0.2 mM ppGpp over the efficiencies obtained in the absence of the alarmone (S1 Data). […] All 30S IC components are as in Fig 1. Dashed line indicates the average tolerance of all mRNAs lacking the SETI element.
The transition towards stringent response entails changes in the composition of all guanosine nucleotides. […] To inquire how the 30S IC responds during the transition from non-stringent (NS) to stringent (S) guanosine nucleotide conditions in the cell, we measured translation initiation along 5 combinations of guanosine nucleotides by thermophoresis, from NS to S conditions (Fig 7A).
The 30S complexes were reconstituted using pure subunits, IFs, tRNAi, mRNA, and nucleotides. The 30S subunits were reactivated by incubation in TAKM20 buffer (as TAKM3.5 but with 20 mM MgCl2) for 1 hour at 37°C prior to use. Generally, 30S ICs were formed by incubation at 37°C for 30 minutes in TAKM7 using 1 μM 30S subunits, 4 μM mRNA, 2 μM IF1, 1 μM IF2, 1.5 μM IF3, 0.5 μM Bpy-Met-tRNA^fMet, and 0.2 mM guanosine nucleotides, unless otherwise stated in the Results or figure captions. Ligand titrations were prepared using serial dilutions using 1:1 mixing of complexes containing the highest concentration of the titrant with complexes lacking only the ligand under investigation. The number of reactions were set up to cover a wide range of concentrations.
MST was measured on 10-μL reactions using standard capillaries (MO-K022, NanoTemper Technologies, Munich, Germany) on a Monolith NT.115 (NanoTemper Technologies, Munich, Germany) at monochromatic LED with power input of 30% and IR laser power of 40%. The local temperature perturbation was expected to be less than 3°C. All measurements were performed at room temperature (22 ± 2°C). Three to four replicates were measured for each investigated reaction to calculate mean and standard deviation. […] KD were calculated using a hyperbolic or quadratic function using Graphpad Prism 6.0 (GraphPad, San Diego, California) or software provided by NanoTemper.

Values joined by “and” are separate entries in the source; they are usually repeats but may differ in a detail not shown here. Equal values may be shown once. Read-outs that look alike come from different tables or passages of the source.

B1: mTufA: TufA mRNA with full-length 5′ UTR, in vitro transcribed, codes for EF-Tu (nucleic acid)
chain: GGUUCUAUCGCCUUUAAAGAAGGCUUUAAGAAAGCGAAACCAGUUCUGCUUGAGCCGAUCAUGAAGGUUGAAGUAGAAACUCCGGAAGAGAACACCGGUGACGUUAUCGGUGACUUGAGCCGUCGUCGUGGUAUGCUCAAAGGUCAGGAAUCUGAAGUUACUGGCGUUAAGAUCCACGCUGAAGUACCGCUGUCUGAAAUGUUCGGAUACGCAACUCAGCUGCGUUCUCUGACCAAAGGUCGUGCAUCAUACACUAUGGAAUUCCUGAAGUAUGAUGAAGCGCCGAGUAACGUUGCUCAGGCCGUAAUUGAAGCCCGUGGUAAAUAAGCCUAAGGGUUAAUACCAAAGUCCCGUGCUCUCUCCUGAAGGGGAGAGCACUAUAGUAAGGAAUAUAGCCGUGUCUAAAGAAAAAUUUGAACG
Regarding B1, the “Translation Replicate” value in series [1] was determined as 0.27 a.u. The “T. initiation Average” value in series [2] (NS to S 1) is given as 81.23%; in series [2] (NS to S 2) it was 75.89%; in series [2] (NS to S 3) it was 60.14%; in series [2] (NS to S 4) it was 45.96%; in series [2] (NS to S 5) it was 23.01%. Also, the “T. initiation Replicates” value in series [2] (NS to S 1) was 79.55% and 82.59% and 81.55%; in series [2] (NS to S 2), 72.98% and 77.43% and 77.26%; in series [2] (NS to S 3), 59.08% and 60.37% and 60.97%; in series [2] (NS to S 4) it was 44.86% and 46.36% and 46.65%; in series [2] (NS to S 5), 22.61% and 23.62% and 22.79%. Moreover, in series [2] (S: 1 mM ppGpp, 0.25 mM pppGpp, 0.14 mM GTP, 0.05 mM GDP), the “translation initiation efficiency (30S IC formation retained) at S conditions” value came out at 25%.
